Source: patent US20200069778A1, “PLANT-EXPRESSED COCAINE HYDROLASE VARIANTS OF BUTYRYLCHOL[…] METHODS OF REDUCING COCAINE-PRIMED REINSTATEMENT” (priority 2018, published 2020)

Assay: Radiometric (−)-cocaine hydrolysis assay
Format: biochemical
Conditions: 25° C.

B1: WT pBChE (protein, UniProt P06276 29-602, looked up)
Cholinesterase: EDDIIIATKNGKVRGMNLTVFGGTVTAFLGIPYAQPPLGRLRFKKPQSLTKWSDIWNATKYANSCCQNIDQSFPGFHGSEMWNPNTDLSEDCLYLNVWIPAPKPKNATVLIWIYGGGFQTGTSSLHVYDGKFLARVERVIVVSMNYRVGALGFLALPGNPEAPGNMGLFDQQLALQWVQKNIAAFGGNPKSVTLFGESAGAASVSLHLLSPGSHSLFTRAILQSGSFNAPWAVTSLYEARNRTLNLAKLTGCSRENETEIIKCLRNKDPQEILLNEAFVVPYGTPLSVNFGPTVDGDFLTDMPDILLELGQFKKTQILVGVNKDEGTAFLVYGAPGFSKDNNSIITRKEFQEGLKIFFPGVSEFGKESILFHYTDWVDDQRPENYREALGDVVGDYNFICPALEFTKKFSEWGNNAFFYYFEHRSSKLPWPEWMGVMHGYEIEFVFGLPLERRDNYTKAEEILSRSIVKRWANFAKYGNPNETQNNSTSWPVFKSTEQKYLTLNTESTRIMTKLRAQQCRFWTSFFPKVLEMTGNIDEAEWEWKAGFHRWNNYMMDWKNQFNDYTSKKESCVGL
modifications: plant-expressed
  Km: 2900 nM
  kcat against (−)-cocaine: 2.6 min⁻¹
